Assay [1] concerns the target T1, GPC3-his蛋白 (UniProt P51654 25-559).
T1 construct: also called GPC3蛋白; not shown: his tag
In words: ELISA titration, GPC3-his coated at 5 μg/ml, 32A9 IgG from 20 μg/ml in 1:2 dilutions, fitted affinity curve. On the technique in general: In an ELISA, binding on a coated surface is turned into a signal by an enzyme label.

In assay [2] the target is T2, GPC3 on A431-GPC3细胞 (A431 cells stably transfected with GPC3 cDNA) (UniProt P51654 25-554).
T2 construct: whole, on cells; also called GPC3阳性细胞; GPC3阳性靶细胞
The assay is described as follows: flow cytometry titration on A431-GPC3 cells, 32A9 IgG from 60 μg/ml in 1:2 dilutions, fitted affinity curve. For orientation: A flow cytometer gives signals particle by particle.

This passage reports Kd results from patent publication CN109021108A (UNIV NANJING MEDICAL, dated 2018).

T1 sequence (P51654 25-559 limits assumed): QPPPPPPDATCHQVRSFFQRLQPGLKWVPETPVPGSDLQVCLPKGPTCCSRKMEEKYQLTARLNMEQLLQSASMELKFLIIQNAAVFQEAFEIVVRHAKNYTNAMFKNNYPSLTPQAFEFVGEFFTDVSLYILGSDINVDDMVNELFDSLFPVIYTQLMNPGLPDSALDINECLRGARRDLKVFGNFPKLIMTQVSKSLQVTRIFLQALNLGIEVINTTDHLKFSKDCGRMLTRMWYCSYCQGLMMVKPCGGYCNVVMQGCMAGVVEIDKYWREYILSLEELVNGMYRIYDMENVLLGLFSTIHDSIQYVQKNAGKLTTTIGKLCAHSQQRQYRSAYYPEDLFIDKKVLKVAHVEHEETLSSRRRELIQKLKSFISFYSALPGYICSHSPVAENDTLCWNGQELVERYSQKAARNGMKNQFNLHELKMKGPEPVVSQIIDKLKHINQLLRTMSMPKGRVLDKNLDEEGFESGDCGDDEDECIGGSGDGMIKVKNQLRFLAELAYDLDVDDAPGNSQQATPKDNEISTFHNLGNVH
T2 sequence (P51654 25-554 limits assumed, form in doubt): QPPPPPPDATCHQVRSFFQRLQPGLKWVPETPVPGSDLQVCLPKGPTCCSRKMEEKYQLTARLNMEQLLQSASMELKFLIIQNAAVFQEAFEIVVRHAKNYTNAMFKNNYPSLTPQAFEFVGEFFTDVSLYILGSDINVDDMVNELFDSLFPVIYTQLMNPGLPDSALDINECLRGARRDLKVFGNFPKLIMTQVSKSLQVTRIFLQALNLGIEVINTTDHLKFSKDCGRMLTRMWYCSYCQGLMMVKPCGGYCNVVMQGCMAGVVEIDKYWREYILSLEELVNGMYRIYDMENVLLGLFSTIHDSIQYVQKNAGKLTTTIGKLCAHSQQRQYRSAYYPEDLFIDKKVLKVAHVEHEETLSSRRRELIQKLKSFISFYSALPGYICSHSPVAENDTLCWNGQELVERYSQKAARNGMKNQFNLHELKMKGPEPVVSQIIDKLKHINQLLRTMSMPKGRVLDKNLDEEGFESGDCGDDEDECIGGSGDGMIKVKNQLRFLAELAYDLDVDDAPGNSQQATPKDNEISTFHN

B1: 32A9IgG重组蛋白 (抗体32A9, anti-GPC3 fully human antibody, IgG form) (antibody, V domains shown)
VH: EVQLLESGGGLVQPGGSLRLSCAASGFTFSSYAMSWVRQAPGKGLEWVSGIAYNGASTAYADSVKGRFTISRDNSKNTLYLQMNSLRAEDTAVYYCAKSAGSFDYWGQGTLVTVSS
VL: DIQMTQSPSSLSASVGDRVTITCRASQSISSYLNWYQQKPGKAPKLLIYSASSLQSGVPSRFSGSGSGTDFTLTISSLQPEDFATYYCQQDYAYPYTFGQGTKVEIK
notes: also called 32A9IgG蛋白
As a reminder, the Kd is the equilibrium constant for the complex coming apart. For the molecule B1, the results for the Kd in assay [1] and in assay [2] were 1.93 nM and 6.25 nM, respectively.
